Molecular target: the molecule itself
Assay: native gel or EMSA

Row | Protein | stoichiometry N
1 | HA-MmSTING stably expressed in MEF Sting-/- cells (MEF^MmSTING) (natural protein, Mus musculus) MPYSNLHPAIPRPRGHRSKYVALIFLVASLMILWVAKDPPNHTLKYLALHLASHELGLLLKNLCCLAEELCHVQSRYQGSYWKAVRACLGCPIHCMAMILLSSYFYFLQNTADIYLSWMFGLLVLYKSLSMLLGLQSLTPAEVSAVCEEKKLNVAHGLAWSYYIGYLRLILPGLQARIRMFNQLHNNMLSGAGSRRLYILFPLDCGVPDNLSVVDPNIRFRDMLPQQNIDRAGIKNRVYSNSVYEILENGQPAGVCILEYATPLQTLFAMSQDAKAGFSREDRLEQAKLFCRTLEEILEDVPESRNNCRLIVYQEPTDGNSFSLSQEVLRHIRQEEKEEVTMNAPMTSVAPPPSVLSQEPRLLISGMDQPLPLRTDLI | ≥ 4
2 | HA-DrSTING stably expressed in MEF Sting-/- cells (MEF^DrSTING) (natural protein, Danio rerio) MSVMGEDALVPRARSRLPVMCAAGLGFLTLAVAWLLDSDKFSERAGIIAFGLMLERFIYCICLLAEELLFHSRQRYHGRMSEIFRACFRGSGILGMCAIFLMLMLGGVSFSVKQWSHFNLMCAGYMLLNSLGVLGPAPVEISEICEAKKMNVAHGLAWSFYIGYLKFLLPALEVNVREYSRRERLSSPRLHILLPLNARVPSKPEEEDTNVVFHENLPDLKLDRAGVRKRSYTNSVYKITHNNETFSCILEYATPLLTLYQMSQESSAGFGERERKQQVLLFYRTLSQILDNSLECRNRYRLILLNDEHTGDPHYLSRELFQNLKQQDGEIFMDPTNEVHPVPEEGPVGNCNGALQATFHEEPMSDEPTLMFSRPQSLRSEPVETTDYFNPSSAMKQN | ≥ 4
3 | HA-NvSTING stably expressed in MEF Sting-/- cells (MEF^NvSTING) (natural protein, Nematostella vectensis) MRRAEENNGFGTIPKRRNQHTPFYASIGMIVVIIVAFTSYHITSYGDDRNRAMRQYSFTFSLAYLAFLVGELLRRCCLFAEEYRHIETRYNGSLKKAIQTTFSFGHNNVLFVASLLFFVVFVASNDPNGSSSVIQGNSTAEPHTEMRQTSGWQGLWGQFIISALLTPLVVHLLGLRELSKVEESQLNEKENKNVADGLAWSYYFGYLKFVLPELEKQIEKTSKFRSKEKFVKKMFILIPSNCFWDDKIPGSDYDPQNRITFEGNTEPLEKTRGGVFLRHYKHSVYEIKDGENEPWFCIMEYATPLLTLYDMSVAQPGELSREERDAQVVVFLRKLQDILEGDRACQGKYELVTFSPDRDLADVMLRKLKDSELEIGG | ≥ 4
4 | HA-MbSTING stably expressed in MEF Sting-/- cells (MEF^MbSTING) (natural protein, Monosiga brevicollis) MMVNLSDLSHLSQRGWAQVFVTLAAAAISIFYFSFSPFEVAAGICASIAAAGAVPLLFDAVHYLIAFCISAPDARPPLRTVWTKTRLQRWSGLSILTFIVLACGLYFASPSPMSASNLFAVFALSLCNSVFSAMVAPRCGRLEVVDLATHPNTVLFRDFGAASAMSYWHGYLQHIAGDRAALEERFRDSDVGGMRVPRKLYILVPQDCEVNASDNKYEGLKATEHYISPKPITIGGVVDREMGKHTLYTPSESAETASVAFAMELASPLNTMKNALKDAAEGLLELQSEAFYLTLRGILKQEGVLDQGNDEGMIKLVWGKNRSEVLKKMRAEDQYAMP | 4

Reference: publication doi:10.1101/2025.11.17.688879 (bioRxiv, 2025)
